Measurements as given in the nanobody polyreactivity screen of Harvey et al. (2022).

assay: yeast display, Sf9 membrane polyspecificity reagent, FACS + sequencing; frameworks hold sequencing errors
In short: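 A synthetic nanobody library was expressed on Saccharomyces cerevisiae BJ5465 by galactose induction for 36–48 hours. The library was stained for 1 hour at 4 °C with 10% biotinylated, detergent-solubilized Sf9 membrane reagent and enriched with streptavidin microbeads before FACS. Low and high (top ~1%) gates were set on anti-HA fluorescence for expression and streptavidin fluorescence for reagent binding, and each polyreactivity label reflects the gate of origin.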

Row | Sequence | polyreactivity (PSR sort gate)
1 | QVQIEESGGGLVQAGRSLRLSCAASGFIFGSNAMGWYRQAPGKETELVAAISRSGGSTYYADSVKGRFTISRDYAKNTVYVQMNSLKPEDTAVYYGASYLYKTRYLTEYDYWGHGTQVTVSS | high polyreactivity
2 | QVQIEESRGGLVQAGGSLRLSCAASGRIIDRYAMGWSRPAPRKERELVAAISSGGRTYYADSVKGRFTISRDNAKNTVYLQMHSLKPEDTAVYYCNAVAYSLSGYNSWGQGTQVTVSS | high polyreactivity
3 | QVQIEESRGGLVQAGGSLRLSCAASGRTFYYYAMGWYRQAPGKERELVAAISYRGGSTYYADSVKGRFTISRDNAKNTVFLQLNSLKPEDTAVYYCAKYPHPLKYPGYPSEFDYWGQGTQVSVSS | low polyreactivity
4 | QVQILESGGGLVQAGGSLRVSCAASGSTFSYYAMGWYRQAPGKERELVAAIRSSGGSTYYADSVKGRFTISRDNAKNTVYLQMNSLKPEDTAVYYCAARRSVGYRRYDYWGQGTQVTVSS | high polyreactivity
5 | QVQIVDSGGGLVQAGGSLRLSCAASGSTFKPYAMGWYRQAPGKERELVAAITFSGGSTYYADSVKGRFTISRDNAKNTVYLQMNSLKPEDTAVYDCAARAFKFNGYYYWGQGTQVTVSS | high polyreactivity
6 | QVQIVDSGGGLVQAGGSLRLSCAASGSTFRAYAMGWYRQSPGKEWELVAAISSSGGSTYYADSVKGRFTISRDNAKITVYLQMNSLKPEDTAVYYFAAAFLAAGRNVRYYWGQGTQVTVSS | high polyreactivity
7 | QVQIVESAAGLVQAGGSLRLSCAASGLTFTTYSKGWYRQAPGKERELVAAISRRGSRTYYADSVKGRFTISRDNSKNTVYLQMNSLKPEDTAVYYCNALTGSFKTYSFDYWGQGTQVTVSS | high polyreactivity
8 | QVQIVESCGGLVQAGGSLRLICAASGFIFTHYAMGWYRQAPGKERELVAAISSGGSTYYADSVKGRFTISRDNAKYTVYLQMNSLKPEDTAVYYCAAVWPWRYYATGENYWGQGTQVTVSS | high polyreactivity
9 | QVQIVESGGCLVQAGGSLRLSCAASGRIIVRNAMGWYRQARGTERELVADITNGGSTNYADSVKGRFTISRDNAKNTVFLEMNSLKPEDTAVDFCAADTLGVYDGDYWGQGTQVTVSS | low polyreactivity
10 | QVQIVESGGGLFQAGGSLRISCAASGFTFPNYAMGWYRQAPGKERELVAAITSGGGRSNYADCVKGRFTISRDNAKKTFYLEMNSLKPEDSAVYYCAKTRVRGSEFGYWGQGTQVTVSS | low polyreactivity
11 | QVQIVESGGGLFQAGGSLRLSCAASGGIFREYAMGWSRQAPGKERELVAVISDSGAGTYYADSVKGRFTISRDNAKNTVSLQMNSLKPEDTEVYYCAQGTARLDFPDMDPWGQGTQVTVSS | low polyreactivity
12 | QVQIVESGGGLLQAGGSLRLSCAASGRIFPANAMGWYREAPGKERELGAAIDYDGGSTYYADSVKGRFTISRDNAKNTVYLQRNSLKPVDNGVFYCDKSLTFYSWRDYGYWGQGTQVTVSS | high polyreactivity
13 | QVQIVESGGGLVEAGGSLRLTCAASGSIFGGNAMGWYRQAPGKERELVAAITSTVSTNYADSVKGRFTISRDNAKNTVYLQMNSLKPEDNAVYYCATDTSNVEGDYWGQGTQVTVSS | low polyreactivity
14 | QVQIVESGGGLVQAAGSLRLSCAASGSTLAPYAMGWYRQAPGKERELVASINWGGTTTYYADSVKGRFTNSRDNAKNKVYLQMNSLKPEDTAVYYCAALGLSWGRSGYYYEYYYWGQGTQVTVSS | high polyreactivity
15 | QVQIVESGGGLVQAGCSLRLSCAASGNIFRGYTMGWYRQAPGKEWELVATITWNGVSTFYADSVKGRFTISRDNAKNTGYLQMNSLKPEDTAVYYCAAYYPSHDYSGFGSDTYEYWGQGTQVTVSS | low polyreactivity
16 | QVQIVESGGGLVQAGGILRLSCAASGSTFSFNAMGWYRQAPGKERELVAAITGGDGTIYADSVKGRFTISRDNAKNTVYLQMNSLKPEVTAVYYCAADQWGSTEDYWFTYGYWGQGTQVTVSS | low polyreactivity
17 | QVQIVESGGGLVQAGGSLRISCAASGSIFVQYAMGLYRQAPGKERELVAAITTGGGTNYADSVKGRFKISRDNAKNTVYLQMNSLKPEDTAVYSCAADSRWLVRLYDYWGHGTQVTVSS | low polyreactivity
18 | QVQIVESGGGLVQAGGSLRISCAASGSTFPRNVMGWYRQAPGKERELVAAITSSGGSTYYADSVKGRFTISRDNAQHTVYLQMNSLKPADTAVYYCNAVSYYLGDDYWGQGTQVTVSS | high polyreactivity
19 | QVQIVESGGGLVQAGGSLRLSCAASGFIFYFYAMGWYRQAPGKERELVATITRRDDSTYYADSVKGRFTISRDNAKNTVYLQMNSLKPEDTAVYYCNADFWLLSEYDYWGQGTQVTVSS | low polyreactivity
20 | QVQIVESGGGLVQAGGSLRLSCAASGFTFLWYAMGWYRQAPGKERELVAAINSGGRTNYADSVKGRFTISRDNAKNTVYLQMNSLKPEDTAVYYCAKRRPLYAHPDDYWGQGTQVTVSS | low polyreactivity
21 | QVQIVESGGGLVQAGGSLRLSCAASGFTFRVYAMGWYRPAPGKERELVAAISARGGSTYYADSVKVRFTISRDNAKNTVDLQMNSLKPEDTAVYYCAAEPSGKRSKFYYWGQGTQETVSS | high polyreactivity
22 | QVQIVESGGGLVQAGGSLRLSCAASGGILYYYVMGWYRQAPGKERELVADISRGGSTNYADSVKGRFTISRDNAKNTVYFQMNSLKPEDTAVYYCADQDGLKQYTFDYWGQGTQVSVSS | low polyreactivity

Row | Sequence | polyreactivity (PSR sort gate)
23 | QVQIVESGGGLVQAGGSLRLSCAASGGIYTRYVMGWYRQAPGTERELVAAISSGGSTYYADSVKGRFTISRDNAKNTDYFQMNSLKPEDTAVYYCAAGYYIYLIRKFIYDYWGQGSQVTVSS | high polyreactivity
24 | QVQIVESGGGLVQAGGSLRLSCAASGGTFWANAMGWYRQAPGKERELVAAITSGGSTYADSVKGRFTISRDNAKNTVYLQMNSLKPDDTAVYYCNARRYRYRPYLSGYNYWGQGTQVTVSS | high polyreactivity
25 | QVQIVESGGGLVQAGGSLRLSCAASGGTFYVNDMGWYRQAPGKERELVATITYSGTSTYYADSVKGRFTISRDNAKNTVYLHMNSLKPEDTAVYYCATDVLLYFEPVNLEYWGQGTQVTVSS | low polyreactivity
26 | QVQIVESGGGLVQAGGSLRLSCAASGIIFDYYAMGWYIQAPGKERELVATITSGGSTNYADSVKGRFTISRDNAKNTVYLQMNSLKPEDSAVYYCAARTYWFPDIYPGLGMDYWGHGTQVTVSS | low polyreactivity
27 | QVQIVESGGGLVQAGGSLRLSCAASGIIFPVYVMGWYRQAPGKERELVAAISKRGGSTYYADSVKGRFTISRDNAKNTVYLQMNSLKPEDTAVYYCAADRSRHSFYWEYDYWGQGTQVTVSS | high polyreactivity
28 | QVQIVESGGGLVQAGGSLRLSCAASGITFDTYVMGWYRQAPGKERELVATISESVGNTYYADSVKGRFTISRDNEKNTVYLQMNILKPEDTAVDYCYTSRYYTIYTYYYWGQGTQVTVSS | low polyreactivity
29 | QVQIVESGGGLVQAGGSLRLSCAASGITFVPNAIGLYRQAPGKERELFDAITNGDSTNYADSVKGRFTISRDNAKNTVYLQMNSLKPEDTAVYYCAADSCAQRPNQGRVSLHYYWGQVTQVTVSS | low polyreactivity
30 | QVQIVESGGGLVQAGGSLRLSCAASGLTFIRYAMGWYRQAPGKERELVAAISTSGGRTYYADSVKGRFTISRDNAKNTVYLQMNSLKPEDTAVYYCAKYQSTGYTQSSYDYRGQGTQVTVSS | high polyreactivity
31 | QVQIVESGGGLVQAGGSLRLSCAASGRIFDLNAMGWYRQAPGKEREFVASITWSVGSTYYADSVKGRFTISRDNAKNTVYLQMNSLKPEVTAVYYCAARSLSWTPYYYWGQGTQVTVSS | high polyreactivity
32 | QVQIVESGGGLVQAGGSLRLSCAASGRIFVGYAMGWYRQAPGKERELFAAISRDGDNTFYADSVKGRFTISRDNAKNTVYLQMNSLKPEDTAVYYCAVDFCVWYGSAYAYDYYWGQGTQVTVSS | low polyreactivity
33 | QVQIVESGGGLVQAGGSLRLSCAASGRISVFNAMGWYRQAPGKERELVAAITSGGSTNYADSVKGRFTISRDNAKNTVYLQMNSLKPEDTAVYYCNADVYHSHEPHYDYWGQGTQVTVSS | low polyreactivity
34 | QVQIVESGGGLVQAGGSLRLSCAASGRTFDHNAMGWYRQAPGKERELVATISGSGGSTNYADSVKGRFTISRDNAKNTVDLQMNSLKPEDTAVYYCATPRVWYYNQYSELDYWGQGTQVTVSS | high polyreactivity
35 | QVQIVESGGGLVQAGGSLRLSCAASGRTFRVNAMGWYRQAPGKERELVAAISSSGGSTYYADSVKGRFTISRDNAKNTVYLQMNSLKPEDTAVYYCAAVVGGYRYDYLGQGTQVTVSS | high polyreactivity
36 | QVQIVESGGGLVQAGGSLRLSCAASGRTFVTYAMGWYRQAPGKERELVAAISRRGGSTYYADSVKGRFTISRDNAKNTVYLQMNSLKPEDTAVYYCAADPTYRTKFGYWGQGTQVTVSS | high polyreactivity
37 | QVQIVESGGGLVQAGGSLRLSCAASGSIFIFYAMGWYRQAPGKERELVADITSDGASTYYADSVKGRFTISRDNAKNTVYLQMNSLKPEDTAVYYCAADYIDSSAYDYWGQGTQVTVSS | low polyreactivity
38 | QVQIVESGGGLVQAGGSLRLSCAASGSIFVQNAMGWYRQAPGKERELVAVINSGDSTNYADSVKGRFTISRDNAKNTVYLQMNSLKPEDTAVYYCAVDDVSYYYLRAYNYELSWYGSGLDYWGQGTQVTVSS | low polyreactivity
39 | QVQIVESGGGLVQAGGSLRLSCAASGSILLYYPIGWYRQAPAKEREWVARITGSGSRTYYADSVKGRFTISRDNAKNTVFVQMHSVKPEDNAVYYCAADFSGHGWESVVGYGYWGQGTQVTVSS | low polyreactivity
40 | QVQIVESGGGLVQAGGSLRLSCAASGSTFFRYAMGWYRQAPGKERELVAAISYSGDSTYYADSVKGRFTISRDNAKNTVYLQMNSLKPEDTAVFYCNAVYFRYRYNYWGQGTQVTVSS | high polyreactivity
41 | QVQIVESGGGLVQAGGSLRLSCAASGSTFPTNAMGWYRQAPGKERELVAAITSTGSTYADSVKGRFTISRDNAKNTVYLQMNSLKPEDTAVYYCAADTQWTTPYDYWGQGTQVTVSS | low polyreactivity
42 | QVQIVESGGGLVQAGGSLRLSCAASGSTFQYYAMGWYRQAPGKERELVAGITWRDGNTYYADSVKGRFTISRDNAKNSVYLQMNSLKPEDTAVYYCAARRYFVIYFPYDYWGQGTQVTVSS | low polyreactivity
43 | QVQIVESGGGLVQAGGSLRLSCAASGSTFTIYAMGRYRQAPGKERELVAAISSGGSTYYADSVKGRFTISRDNAKNTVYLQMNSLKPEDTAVYYCAARVYLSGYGYNYWGQGTQVTVSS | high polyreactivity
